This assay has as its target recombinant phytoplasmal effector causing phyllody 1 (PHYL1). The assay can be described thus: cross-linking; recombinant IMP and PHYL1 mixed at 30 µM each in 1x PBS, 15 min at 20°C, then 1 mM bis(sulfosuccinimidyl)suberate (BS3) for 60 min; SDS-PAGE and Western blot with anti-IMP and anti-PHYL1. (In general: Immunoblotting shows a protein as a band on a membrane.)

A word on the stoichiometry N: it is a count of units in the complex or per binding partner.

Turning to “recombinant immunodominant membrane protein (IMP) without the transmembrane domain, amino acids 33-172, from Crotalaria witches' broom phytoplasma (domain or fragment)”, the stoichiometry N worked out at 1.

The record behind these values is paper PMC11067747.
